T1: HEPN domain of SACSIN (tag removed) (UniProt Q9NZJ4 4441-4579)
T1 sequence: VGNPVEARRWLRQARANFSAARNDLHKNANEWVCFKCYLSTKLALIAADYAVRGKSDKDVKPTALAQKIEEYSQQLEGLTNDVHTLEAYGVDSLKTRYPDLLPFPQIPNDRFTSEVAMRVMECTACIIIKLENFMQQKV


How the values were obtained:
[1] = target: T1, HEPN domain of SACSIN (tag removed); experiment: BLI; 75 nM to 10 uM protein; BLI: 20 mM potassium phosphate pH 7.4, 150 mM KCl, 0.05% Tween-20, 25 C; pull-down: PBS, 2 mM MgCl2, 0.2% NP-40, 0.05% BSA, RNase inhibitor, room temperature; settings: protein: recombinant; tags: GST removed by thrombin; chain copies: 2; label: biotin; 1 strand
[2] = target: T1, HEPN domain of SACSIN (tag removed); experiment: BLI; BLI: 20 mM potassium phosphate pH 7.4, 150 mM KCl, 0.05% Tween-20, 25 C; pull-down: PBS, 2 mM MgCl2, 0.2% NP-40, 0.05% BSA, RNase inhibitor, room temperature; settings: protein: recombinant; tags: GST removed by thrombin; chain copies: 2; label: 5' biotin; 1 strand; two putative G-quadruplex-forming stretches

Binder	binding result [1]	Kd [2]
AACCAACUUUCGAUCUCUUGUAGAUCUGUUCU (ssRNA) [non-GC-rich RNA 32 nt]	no binding	–
CGGGGGCGGCGGCGGCGGCGGCGGCAGCGGGG (ssRNA) [GC-rich RNA 32 nt (predicted HEPN interacting RNA)]	–	2600 ± 300 nM

From article PMC13669270, “The isolated HEPN domain of SACSIN exhibits RNA-binding activity”
